T1: factor VIIIa A1/A3C1C2 dimer, wild type (human, UniProt P00451 20-391; P00451 1709-2351)
T1 sequence 1: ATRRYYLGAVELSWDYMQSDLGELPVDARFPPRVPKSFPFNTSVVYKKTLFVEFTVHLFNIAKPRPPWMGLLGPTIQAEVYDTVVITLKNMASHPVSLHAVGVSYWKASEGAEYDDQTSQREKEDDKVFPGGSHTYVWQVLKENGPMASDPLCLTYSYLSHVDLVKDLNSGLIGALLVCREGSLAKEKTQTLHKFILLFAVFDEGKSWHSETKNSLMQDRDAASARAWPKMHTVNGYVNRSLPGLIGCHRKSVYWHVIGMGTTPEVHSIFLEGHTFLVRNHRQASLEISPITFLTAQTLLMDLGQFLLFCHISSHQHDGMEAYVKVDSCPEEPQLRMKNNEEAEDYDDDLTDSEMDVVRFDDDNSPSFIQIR
T1 sequence 2: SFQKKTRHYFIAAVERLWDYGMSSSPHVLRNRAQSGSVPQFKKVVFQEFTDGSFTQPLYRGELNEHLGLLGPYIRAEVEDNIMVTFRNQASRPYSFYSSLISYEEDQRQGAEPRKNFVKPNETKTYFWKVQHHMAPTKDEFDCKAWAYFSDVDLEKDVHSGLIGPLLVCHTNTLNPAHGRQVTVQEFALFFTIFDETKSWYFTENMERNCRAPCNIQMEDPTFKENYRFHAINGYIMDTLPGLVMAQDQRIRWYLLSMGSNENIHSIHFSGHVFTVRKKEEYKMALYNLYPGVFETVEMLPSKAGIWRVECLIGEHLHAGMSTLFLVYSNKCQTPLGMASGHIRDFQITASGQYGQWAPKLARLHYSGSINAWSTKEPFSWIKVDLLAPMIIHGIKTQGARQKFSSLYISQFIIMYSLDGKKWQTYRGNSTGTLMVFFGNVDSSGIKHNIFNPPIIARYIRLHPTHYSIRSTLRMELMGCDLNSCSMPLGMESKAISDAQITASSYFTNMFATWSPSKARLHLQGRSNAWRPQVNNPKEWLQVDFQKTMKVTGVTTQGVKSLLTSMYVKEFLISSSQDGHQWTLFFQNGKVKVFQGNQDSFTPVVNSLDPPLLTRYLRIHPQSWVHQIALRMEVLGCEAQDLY

T2: factor VIIIa A1/A3C1C2 dimer, Glu1984Ala (human, UniProt P00451 20-391; P00451 1709-2351)
T2 sequence 1: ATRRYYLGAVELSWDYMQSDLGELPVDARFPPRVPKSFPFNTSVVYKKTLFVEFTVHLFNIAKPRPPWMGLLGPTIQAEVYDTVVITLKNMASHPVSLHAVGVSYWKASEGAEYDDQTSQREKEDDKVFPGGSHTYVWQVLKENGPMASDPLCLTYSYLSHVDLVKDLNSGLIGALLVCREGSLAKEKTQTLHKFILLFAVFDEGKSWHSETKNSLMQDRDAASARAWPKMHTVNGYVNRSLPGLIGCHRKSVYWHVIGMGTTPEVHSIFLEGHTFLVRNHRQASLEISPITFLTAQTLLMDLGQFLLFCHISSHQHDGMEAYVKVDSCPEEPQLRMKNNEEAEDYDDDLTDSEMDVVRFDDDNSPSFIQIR
T2 sequence 2: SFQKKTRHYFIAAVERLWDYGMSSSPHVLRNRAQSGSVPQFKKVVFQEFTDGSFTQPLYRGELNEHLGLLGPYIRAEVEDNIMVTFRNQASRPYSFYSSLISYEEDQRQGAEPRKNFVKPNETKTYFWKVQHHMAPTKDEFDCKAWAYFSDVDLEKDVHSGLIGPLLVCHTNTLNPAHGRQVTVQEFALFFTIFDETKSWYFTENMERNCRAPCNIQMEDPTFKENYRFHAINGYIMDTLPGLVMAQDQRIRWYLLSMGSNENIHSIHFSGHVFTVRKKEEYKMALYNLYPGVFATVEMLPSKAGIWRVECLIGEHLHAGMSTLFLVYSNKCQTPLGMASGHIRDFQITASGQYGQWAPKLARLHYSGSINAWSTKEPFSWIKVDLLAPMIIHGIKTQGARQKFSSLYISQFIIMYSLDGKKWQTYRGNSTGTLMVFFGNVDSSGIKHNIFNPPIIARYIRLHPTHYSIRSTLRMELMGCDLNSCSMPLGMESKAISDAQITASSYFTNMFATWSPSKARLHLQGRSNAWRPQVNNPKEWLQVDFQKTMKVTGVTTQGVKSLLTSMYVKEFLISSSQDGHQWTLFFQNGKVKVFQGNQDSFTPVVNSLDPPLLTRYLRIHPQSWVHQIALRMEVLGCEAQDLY

T3: factor VIIIa A1/A3C1C2 dimer, Glu1984Val (human, UniProt P00451 20-391; P00451 1709-2351)
T3 sequence 1: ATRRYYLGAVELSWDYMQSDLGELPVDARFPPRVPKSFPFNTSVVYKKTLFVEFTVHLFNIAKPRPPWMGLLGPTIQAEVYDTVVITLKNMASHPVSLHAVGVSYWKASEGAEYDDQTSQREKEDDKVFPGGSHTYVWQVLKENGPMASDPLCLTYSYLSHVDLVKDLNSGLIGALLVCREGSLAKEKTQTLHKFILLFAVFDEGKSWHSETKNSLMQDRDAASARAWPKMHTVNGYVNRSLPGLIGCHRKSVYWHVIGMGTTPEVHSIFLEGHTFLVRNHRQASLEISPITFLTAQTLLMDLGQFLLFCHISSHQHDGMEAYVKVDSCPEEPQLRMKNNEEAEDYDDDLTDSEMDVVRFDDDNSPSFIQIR
T3 sequence 2: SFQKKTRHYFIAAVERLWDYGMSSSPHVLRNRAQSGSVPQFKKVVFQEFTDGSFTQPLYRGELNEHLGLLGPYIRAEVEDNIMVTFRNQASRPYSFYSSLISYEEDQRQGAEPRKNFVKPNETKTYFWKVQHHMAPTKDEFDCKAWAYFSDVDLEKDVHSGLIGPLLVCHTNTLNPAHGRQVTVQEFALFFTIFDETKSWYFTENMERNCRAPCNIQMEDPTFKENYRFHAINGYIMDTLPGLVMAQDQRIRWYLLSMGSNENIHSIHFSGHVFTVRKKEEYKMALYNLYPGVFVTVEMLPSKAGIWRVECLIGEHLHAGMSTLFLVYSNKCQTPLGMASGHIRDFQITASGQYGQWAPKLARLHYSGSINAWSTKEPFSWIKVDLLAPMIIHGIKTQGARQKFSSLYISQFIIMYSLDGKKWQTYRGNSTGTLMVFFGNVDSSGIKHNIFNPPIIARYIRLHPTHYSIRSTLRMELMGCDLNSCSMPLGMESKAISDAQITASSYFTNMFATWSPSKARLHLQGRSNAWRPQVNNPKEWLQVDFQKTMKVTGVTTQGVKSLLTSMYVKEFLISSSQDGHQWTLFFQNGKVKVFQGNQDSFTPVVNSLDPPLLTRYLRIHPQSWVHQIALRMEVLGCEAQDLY

T4: factor VIIIa A1/A3C1C2 dimer, Glu113Ala (human, UniProt P00451 20-391; P00451 1709-2351)
T4 chain 1: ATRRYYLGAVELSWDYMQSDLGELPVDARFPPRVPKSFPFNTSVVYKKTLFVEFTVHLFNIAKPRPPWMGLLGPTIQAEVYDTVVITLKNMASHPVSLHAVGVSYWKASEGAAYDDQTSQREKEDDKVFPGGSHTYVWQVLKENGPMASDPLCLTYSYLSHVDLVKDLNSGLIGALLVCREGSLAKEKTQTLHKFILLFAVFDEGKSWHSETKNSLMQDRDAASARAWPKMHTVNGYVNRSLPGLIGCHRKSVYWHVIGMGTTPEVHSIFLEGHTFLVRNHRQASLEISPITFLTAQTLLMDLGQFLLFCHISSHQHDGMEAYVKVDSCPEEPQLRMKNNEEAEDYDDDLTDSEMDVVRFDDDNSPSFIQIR
T4 chain 2: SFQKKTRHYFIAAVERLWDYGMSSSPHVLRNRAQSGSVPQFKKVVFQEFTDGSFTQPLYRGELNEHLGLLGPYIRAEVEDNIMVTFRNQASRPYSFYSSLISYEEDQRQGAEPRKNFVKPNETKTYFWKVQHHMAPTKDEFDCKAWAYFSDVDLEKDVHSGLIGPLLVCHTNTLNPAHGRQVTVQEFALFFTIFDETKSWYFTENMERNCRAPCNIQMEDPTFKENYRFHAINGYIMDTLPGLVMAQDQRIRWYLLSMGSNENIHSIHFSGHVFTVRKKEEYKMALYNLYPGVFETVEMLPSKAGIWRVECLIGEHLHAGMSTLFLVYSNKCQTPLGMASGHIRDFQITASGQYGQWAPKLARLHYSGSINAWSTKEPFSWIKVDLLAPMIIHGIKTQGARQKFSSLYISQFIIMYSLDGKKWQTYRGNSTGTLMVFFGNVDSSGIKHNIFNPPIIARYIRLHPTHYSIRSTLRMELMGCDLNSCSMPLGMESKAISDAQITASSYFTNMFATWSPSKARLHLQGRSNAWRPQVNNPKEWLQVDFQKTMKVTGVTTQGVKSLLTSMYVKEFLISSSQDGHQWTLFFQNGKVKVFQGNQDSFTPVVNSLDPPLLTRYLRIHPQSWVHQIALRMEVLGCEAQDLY


Legend:
Assay in all cases: cell-based or functional assay
[1] = biological target: T1, factor VIIIa A1/A3C1C2 dimer, wild type
[2] = biological target: T2, factor VIIIa A1/A3C1C2 dimer, Glu1984Ala
[3] = biological target: T3, factor VIIIa A1/A3C1C2 dimer, Glu1984Val
[4] = biological target: T1, factor VIIIa A1/A3C1C2 dimer, wild type; remark: listed apart in the source
[5] = biological target: T4, factor VIIIa A1/A3C1C2 dimer, Glu113Ala

Decay rate relative to wild type, Factor VIIIa (1.5 nM, factor IXa absent) [1]	Decay rate, Factor VIIIa (1.5 nM factor VIIIa, factor IXa absent) [1] [min⁻¹]	Decay rate relative to wild type, Factor VIIIa (1.5 nM, factor IXa absent) [2]	Decay rate, Factor VIIIa (1.5 nM factor VIIIa, factor IXa absent) [2] [min⁻¹]	Decay rate relative to wild type, Factor VIIIa (1.5 nM, factor IXa absent) [3]	Decay rate, Factor VIIIa (1.5 nM factor VIIIa, factor IXa absent) [3] [min⁻¹]	Factor VIIIa Decay relative to the WT value, Factor IXa absent [4]	Factor VIIIa Decay relative to the WT value, Factor IXa present [4]	Factor VIIIa Decay, Factor IXa absent [4] [min⁻¹]	Factor VIIIa Decay, Factor IXa present [4] [min⁻¹]	Decay rate relative to wild type, Factor VIIIa (1.5 nM, factor IXa absent) [5]	Decay rate, Factor VIIIa (1.5 nM factor VIIIa, factor IXa absent) [5] [min⁻¹]	Binder
0.28 relative to wild type	0.0395	0.26 relative to wild type	0.036	0.48 relative to wild type	0.0671	0.19 relative to WT	0.34 relative to WT	0.016	0.0052	0.24 relative to wild type	0.0333	factor VIIIa A2 subunit, Glu665Val (other) SVAKKHPKTWVHYIAAEEEDWDYAPLVLAPDDRSYKSQYLNNGPQRIGRKYKKVRFMAYTDETFKTREAIQHESGILGPLLYGEVGDTLLIIFKNQASRPYNIYPHGITDVRPLYSRRLPKGVKHLKDFPILPGEIFKYKWTVTVEDGPTKSDPRCLTRYYSSFVNMERDLASGLIGPLLICYKESVDQRGNQIMSDKRNVILFSVFDENRSWYLTENIQRFLPNPAGVQLEDPEFQASNIMHSINGYVFDSLQLSVCLHEVAYWYILSIGAQTDFLSVFFSGYTFKHKMVYVDTLTLFPFSGETVFMSMENPGLWILGCHNSDFRNRGMTALLKVSSCDKNTGDYYEDSYEDISAYLLSKNNAIEPR
0.16 relative to wild type	0.0222	0.17 relative to wild type	0.0235									factor VIIIa A2 subunit, D519A and E665V (other) SVAKKHPKTWVHYIAAEEEDWDYAPLVLAPDDRSYKSQYLNNGPQRIGRKYKKVRFMAYTDETFKTREAIQHESGILGPLLYGEVGDTLLIIFKNQASRPYNIYPHGITDVRPLYSRRLPKGVKHLKDFPILPGEIFKYKWTVTVEAGPTKSDPRCLTRYYSSFVNMERDLASGLIGPLLICYKESVDQRGNQIMSDKRNVILFSVFDENRSWYLTENIQRFLPNPAGVQLEDPEFQASNIMHSINGYVFDSLQLSVCLHEVAYWYILSIGAQTDFLSVFFSGYTFKHKMVYVDTLTLFPFSGETVFMSMENPGLWILGCHNSDFRNRGMTALLKVSSCDKNTGDYYEDSYEDISAYLLSKNNAIEPR

From patent publication US20090118184A1 (UNIVERSITY OF ROCHESTER, published 2009)
